The source of these data is article PMC3679108, “A Novel Glucagon-Related Peptide (GCRP) and Its Receptor GCRPR Account for Coevolution of Their Family Members in Vertebrates” (PLoS ONE, 2013).

The target of test [1] is human GIPR (human) (UniProt P48546).
Test [2] addresses chicken GCRP receptor (chicken).
In test [3] the target is Xenopus GCRP receptor (Xenopus).

Sequence of Human GCG (peptide) (peptide): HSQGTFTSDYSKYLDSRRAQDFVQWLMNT
Sequence of Human GLP1 (peptide) (peptide): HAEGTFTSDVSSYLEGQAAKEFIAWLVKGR
Sequence of human GIPR (human) (P48546 22-466): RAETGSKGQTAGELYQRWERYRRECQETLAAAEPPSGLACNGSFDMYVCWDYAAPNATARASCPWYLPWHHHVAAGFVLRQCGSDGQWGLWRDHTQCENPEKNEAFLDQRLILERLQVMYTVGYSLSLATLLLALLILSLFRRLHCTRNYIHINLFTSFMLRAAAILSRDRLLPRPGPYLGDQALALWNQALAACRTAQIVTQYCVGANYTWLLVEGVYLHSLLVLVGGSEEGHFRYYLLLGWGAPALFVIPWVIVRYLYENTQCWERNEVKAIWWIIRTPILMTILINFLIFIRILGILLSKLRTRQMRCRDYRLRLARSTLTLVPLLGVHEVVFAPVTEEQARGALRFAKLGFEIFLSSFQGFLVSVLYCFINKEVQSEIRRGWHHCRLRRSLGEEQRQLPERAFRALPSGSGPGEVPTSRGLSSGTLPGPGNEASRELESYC

In test [1], Exendin-4 (peptide) displayed a CRE-luc reporter, HEK293T cells with the receptor: EC50 of 100 nM.
For Human GCG (peptide), in test [2], the CRE-luc reporter, HEK293T cells with the receptor: EC50 amounted to 35.3 nM and the CRE-luc reporter, HEK293T cells with the receptor: Emax (fold induction) worked out at 6.3. In test [3], this substance registered a CRE-luc reporter, HEK293T cells with the receptor: EC50 of 49.4 nM and a CRE-luc reporter, HEK293T cells with the receptor: Emax (fold induction) of 32.7.
In the case of Human GLP1 (peptide), the CRE-luc reporter, HEK293T cells with the receptor: EC50 came to 120 nM in test [2] and 391 nM in test [3]. The results for the CRE-luc reporter, HEK293T cells with the receptor: Emax (fold induction) in test [2] and in test [3] were 6.24 and 35, respectively.
